Consider two substances from PMC11008599.

pKd: −log10 of the molar value.

In assay [1] the target is bispecific/bivalent aIL2_1-aIL2_1-K8 fusion, SNV-N stalks, GGGGP linkers. Put plainly: SPR; bridging SPR assay: immobilised C5, binding cycles of the knob domain fusions, then a binding cycle of IL-2. (In general: SPR reads the build-up and loss of mass on a sensor chip optically.)
In assay [2] the target is aIL2_1-aIL2_1-K8, BECN1 frameworks (bovine (knob domain)). The experiment in a line: SPR; multicycle kinetics, Biacore 8K+; knob domain constructs immobilised on a CM5 chip via amine coupling, IL-2 in solution; HBS-EP+; two-state binding model, only the fastest association and the slowest dissociation rate constants reported.
Assay [3] concerns the target aIL2_1-K8 (G4P linker), BECN1 frameworks (bovine (knob domain)). The description is as above.
For assay [4], the target named is aIL2_1-aIL2_1, BECN1 frameworks (bovine (knob domain)). Described as above.
Assay [5] deals with aIL2_1-aIL2_1, SNV-N frameworks (bovine (knob domain)). Put plainly: SPR; […], Biacore 8K+; […]; HBS-EP+; […].
The target of assay [6] is aIL2_1-aIL2_1-K8, SNV-N frameworks (bovine (knob domain)). Put plainly: SPR; […], Biacore 8K+; […]; HBS-EP+; […].
For assay [7], the target named is aIL2_1-K8 (G4P linker), SNV-N frameworks (bovine (knob domain)). The experiment in a line: SPR; […], Biacore 8K+; […]; HBS-EP+; […].
Assay [8] addresses aIL2_1-K8 (G4P linker), BECN1 frameworks (bovine (knob domain)). The experiment in a line: SPR; multicycle kinetics, Biacore 8K+; knob domain constructs immobilised on a CM5 chip via amine coupling, C5 in solution; HBS-EP+ (10 mM HEPES pH 7.4, 150 mM NaCl, 3 mM EDTA, 0.005% P20); 1:1 binding model.
Assay [9] deals with K8-K57, BECN1 frameworks (bovine (knob domain)). Described as above.
The target of assay [10] is K8-K57, SNV-N frameworks (bovine (knob domain)). The experiment in a line: SPR; […], Biacore 8K+; […]; HBS-EP+ (10 mM HEPES pH 7.4, 150 mM NaCl, 3 mM EDTA, 0.005% P20); 1:1 binding model.
Assay [11] addresses aIL2_1-K8 (G4P linker), SNV-N frameworks (bovine (knob domain)). The description is as above.

Broadly, the pKd is the Kd on a negative log10 scale, so that one unit is a factor of ten. Read a high pKd as a small Kd. Usually koff stands for a measure of how fast the partners let go of each other. High values mean a short-lived complex, low ones a long-lived complex. By kon is commonly meant the rate constant with which the complex forms. Low values mean slower complex formation, high ones faster complex formation.

human IL-2, sequence (P60568 21-153): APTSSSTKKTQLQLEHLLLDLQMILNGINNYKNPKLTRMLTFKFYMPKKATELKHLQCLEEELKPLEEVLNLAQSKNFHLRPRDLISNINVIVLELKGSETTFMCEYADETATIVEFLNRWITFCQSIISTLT
aIL2_1-K8 (G4P linker), BECN1 frameworks (bovine (knob domain)), sequence (main, as listed by the source): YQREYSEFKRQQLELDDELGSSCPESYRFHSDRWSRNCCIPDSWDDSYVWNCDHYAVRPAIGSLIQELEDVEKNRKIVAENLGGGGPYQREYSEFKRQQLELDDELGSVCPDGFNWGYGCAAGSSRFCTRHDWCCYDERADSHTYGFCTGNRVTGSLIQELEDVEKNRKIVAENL
aIL2_1-aIL2_1-K8, BECN1 frameworks (bovine (knob domain)), sequence (main, as listed by the source): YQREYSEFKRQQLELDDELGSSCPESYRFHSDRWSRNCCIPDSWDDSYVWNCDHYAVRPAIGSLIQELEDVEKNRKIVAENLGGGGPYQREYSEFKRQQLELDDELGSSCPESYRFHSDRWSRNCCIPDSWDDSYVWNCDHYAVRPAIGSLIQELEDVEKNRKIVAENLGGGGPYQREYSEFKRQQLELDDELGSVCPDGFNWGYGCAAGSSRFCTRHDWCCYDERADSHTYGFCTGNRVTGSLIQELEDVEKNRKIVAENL
aIL2_1-aIL2_1, BECN1 frameworks (bovine (knob domain)), sequence (main, as listed by the source): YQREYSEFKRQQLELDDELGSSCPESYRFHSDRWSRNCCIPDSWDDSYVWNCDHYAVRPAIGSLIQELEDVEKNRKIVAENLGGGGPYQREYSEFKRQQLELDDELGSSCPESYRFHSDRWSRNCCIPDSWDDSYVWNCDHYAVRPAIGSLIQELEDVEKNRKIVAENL

Regarding “human IL-2 (from UniProt P60568 21-153) (natural protein)”, in assay [1], the increase in signal upon IL-2 binding turned out to be 26 RU. Also, the pKd in assay [2] is 8.15; in assay [3], 8.00; in assay [4], 8.12; in assay [5], 8.24; in assay [6], 8.26; in assay [7], 8.05.
Take “complement component 5 (natural protein)”: the negative-log Kd (pKd) in [8] is 7.54; in [9] it was 9.05; in [10] it was 8.93; in assay [11], 7.59. Moreover, the off-rate constant (koff) in [8] turned out to be 0.00026 s⁻¹; in assay [9] it was 2.8e-05 s⁻¹; in [10], 1.83e-05 s⁻¹; in assay [11], 0.00025 s⁻¹. In addition, the association rate constant (kon) in assay [8] is 8800 M⁻¹ s⁻¹; in assay [9] it was 31000 M⁻¹ s⁻¹; in [10], 15400 M⁻¹ s⁻¹; in assay [11], 9700 M⁻¹ s⁻¹.
